Data on 3 molecules can be found in patent publication US20070207498A1, “Design and construction of dimeric concanavalin a mutants” (LifeScan, Inc., priority 2005, published 2007).

Assay [1] concerns the target T1, Concanavalin A (ConA) dimer mutant pET32 (D58N, N118C, H121C, E192Q), SEQ ID NOS: 12 and 24 (Canavalia ensiformis, UniProt P02866, D221N/E103Q/H32C/N281C).
T1 construct: made in house
Put plainly: FRET response of sensors, Cy3.5-labeled pET32 dimer mutant ConA (donor) with Alexa647-labeled superoxide dismutase (acceptor). It counts as binding. The following applies: 500 mg/dL glucose; 6 μM to 24 μM ratio, Alexa647-SOD, FIG. 13.
Text: (§1) Functional properties of recombinant ConA have been characterized by Fluorescence Resonance Energy Transfer (FRET) using a PTI QuantaMaster fluorimeter.

Assay [2] concerns the target T1, Concanavalin A (ConA) dimer mutant pET32 (D58N, N118C, H121C, E192Q), SEQ ID NOS: 12 and 24. Nature of the assay: FRET response of sensors, Cy3.5-labeled pET32 dimer mutant ConA (donor) with Cy5.5-labeled superoxide dismutase (acceptor). It counts as binding. Conditions: 500 mg/dL glucose; Cy5.5-SOD, FIG. 14.
Text: as §1
Sensors made with Cy3.5-labeled pET32 dimer mutant ConA and Cy5.5-labeled superoxide dismutase (SOD).
Assay [3] deals with dye and sugar-labeled therapeutic human serum albumin (tHSA) (human) (UniProt P02768). Nature of the assay: FRET competition assay (FIG. 12), 4-parameter logistic fit; unlabeled tetramer against labeled tetrameric ConA on HSA.
Assay [4] has the same target. Nature of the assay: FRET competition assay, 384-well plate: unlabeled tetramer displaces labeled tetrameric ConA from HSA; Ki estimated from EC50 and the concentration of labeled tetramer.
Assay [5] addresses T2, dye and sugar-labeled therapeutic human serum albumin (tHSA) (human, UniProt P02768 25-609, sugar-labeled (glycoconjugate); labeled with the acceptor Alexa 647; modified residues not stated).
T2 construct: also called Alexa-HSA; Alexa-labeled Human Serum Albumin
Nature of the assay: FRET competition assay, 384-well plate: unlabeled competitor displaces labeled tetrameric ConA from HSA; Ki estimated from EC50 and the concentration of labeled tetramer. On the procedure:
Mutant ConA was characterized by FRET. […] The EC₅₀ was calculated using a 4-parameter logistic equation.

Turning to `OC[C@H]1OC(O)[C@H](O)[C@@H](O)[C@@H]1O` (some centres unmarked) [glucose], the results for the “FRET response to the addition of glucose” value in assay [1] and in assay [2] were “approximately 262%” and roughly 266%, respectively. “ConA tetramer (tetrameric ConA used as labeled partner and as unlabeled competitor in the competition binding assay) (from UniProt P02866 30-281)” returned an EC50 in assay [3] of 110 nM. Further, the inhibition constant (Ki) in assay [4] was 9.1 nM.

B1: pET32 quad mutant ConA (D58N, N118C, H121C, E192Q), stable dimer (other)
chain: ADTIVAVELDTYPNTDIGDPSYPHIGIDIKSVRSKKTAKWNMQNGKVGTAHIIYNSVNKRLSAVVSYPNADSATVSYDVDLDNVLPEWVRVGLSASTGLYKETNTILSWSFTSKLKSCSTCETNALHFMFNQFSKDQKDLILQGDATTGTDGNLELTRVSSNGSPQGSSVGRALFYAPVHIWESSAVVASFQATFTFLIKSPDSHPADGIAFFISNIDSSIPSGSTGRLLGLFPDAN
modifications: unlabeled as competitor in the FIG. 12 assay; labeled with Cy3.5b / Cy3.5 (donor dye) in the FRET and sensor experiments, labeled residues not stated
notes: also called dimer mutant ConA; pET32 dimer ConA mutant
For B1, the Ki in assay [5] was roughly 21 nM.
